Source: FireProtDB

Settings: Capra hircus; pH 7; 25 °C; GdnHCl; CD; sodium cacodylate 50 mM; NaCl 50 mM; reversible: yes; whole UniProt chain shown

B1: Alpha-lactalbumin wild type, P00712 (protein)
chain: MMSFVSLLLVGILFHATQAEQLTKCEVFQKLKDLKDYGGVSLPEWVCTAFHTSGYDTQAIVQNNDSTEYGLFQINNKIWCKDDQNPHSRNICNISCDKFLDDDLTDDIVCAKKILDKVGINYWLAHKALCSEKLDQWLCEKL
  denaturant m value: 2.2 kcal/mol/M
  denaturant midpoint (higher = more stable): 2.6 M
  unfolding free energy: 5.7 kcal/mol
